Measured values reported in PMC2860547.

Biological target: Snf1 protein tagged with 3 copies of the HA epitope (wild type) (S. cerevisiae) (UniProt P06782)
Assay: co-IP

UniProt P06782, sequence (P06782 whole entry): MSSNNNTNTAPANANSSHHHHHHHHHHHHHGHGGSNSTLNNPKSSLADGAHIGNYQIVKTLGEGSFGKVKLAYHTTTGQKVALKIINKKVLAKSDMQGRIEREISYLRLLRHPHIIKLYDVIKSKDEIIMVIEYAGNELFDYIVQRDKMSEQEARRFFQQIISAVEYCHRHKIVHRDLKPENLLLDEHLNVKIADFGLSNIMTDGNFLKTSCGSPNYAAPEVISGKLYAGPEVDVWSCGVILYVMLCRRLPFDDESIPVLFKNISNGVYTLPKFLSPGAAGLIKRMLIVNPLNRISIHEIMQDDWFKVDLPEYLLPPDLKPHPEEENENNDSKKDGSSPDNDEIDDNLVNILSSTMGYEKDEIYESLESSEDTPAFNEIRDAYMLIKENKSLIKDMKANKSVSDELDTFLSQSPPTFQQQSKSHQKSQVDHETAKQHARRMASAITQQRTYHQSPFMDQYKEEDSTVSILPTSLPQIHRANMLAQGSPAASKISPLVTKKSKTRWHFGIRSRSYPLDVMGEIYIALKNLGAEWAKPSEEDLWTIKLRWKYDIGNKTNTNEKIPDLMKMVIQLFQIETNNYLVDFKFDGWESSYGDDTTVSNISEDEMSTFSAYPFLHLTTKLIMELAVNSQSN

- fold reduction of associated Reg1 against wild type Reg1: 30 fold
Substance: Reg1-IF (I466M, F468A) (from UniProt Q00816 1-1014) (natural protein)
